In paper PMC3351694 (Virology, 2012):
Read-outs that look alike come from different tables or passages of the source.

Experiments:
Assay in all cases: SEC
[1] = biological target: T1, bacteriophage P22 coat protein (bacteriophage P22, UniProt P26747 1-430)
[2] = biological target: T1, bacteriophage P22 coat protein; remark: listed apart in the source
[3] = biological target: T1, bacteriophage P22 coat protein; remark: listed apart in the source

T1 sequence (P26747 whole entry): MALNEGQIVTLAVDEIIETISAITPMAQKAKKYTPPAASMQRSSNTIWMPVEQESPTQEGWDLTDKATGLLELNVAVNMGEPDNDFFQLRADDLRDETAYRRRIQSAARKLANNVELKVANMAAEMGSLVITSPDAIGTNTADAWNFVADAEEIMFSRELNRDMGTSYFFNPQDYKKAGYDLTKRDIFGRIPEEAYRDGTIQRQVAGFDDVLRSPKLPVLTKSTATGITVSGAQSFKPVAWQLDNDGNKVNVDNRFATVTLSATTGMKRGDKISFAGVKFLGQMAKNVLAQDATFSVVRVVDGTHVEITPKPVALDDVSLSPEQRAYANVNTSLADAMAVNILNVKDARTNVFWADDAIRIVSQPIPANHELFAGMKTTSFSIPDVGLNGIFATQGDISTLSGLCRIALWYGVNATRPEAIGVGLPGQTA

B1: bacteriophage P22 scaffolding protein (natural protein, UniProt P26748 1-303, looked up)
chain: MEPTTEIQATEDLTLSGDHAAASADSLVVDNANDNAGQEEGFEIVLKDDETAPKQDPAKNAEFARRRIERKRQRELEQQMEAVKRGELPESLRVNPDLPPQPDINAYLSEEGLAKYDYDNSRALAAFNAANTEWLMKAQDARSNAVAEQGRKTQEFTQQSAQYVEAARKHYDAAEKLNIPDYQEKEDAFMQLVPPAVGADIMRLFPEKSAALMYHLGANPEKARQLLAMDGQSALIELTRLSERLTLKPRGKQISSAPPADQPITGDVSAANKDAIRKQMDAAASKGDVETYRKLKAKLKGIR
stoichiometry N [1]: ~360 scaffolding protein sites per PC
1/KS (dissociation constant of scaffolding protein for PC), Snum 300 [2]: 0.77 ± 0.7 µM
1/KS (dissociation constant of scaffolding protein for PC), Snum 360 [2]: 1.29 ± 0.95 µM
1/KS (dissociation constant of scaffolding protein for PC), Snum 420 [2]: 1.88 ± 1.25 µM
midpoint of the binding fit (K's, input S/C ratio) [3]: 0.88 input S/C molar ratio
stoichiometry N [3]: 294 ± 33 scaffolding proteins per PC
